Measured values taken from patent publication EP1899377B1.

Target: GST-human NOGO-A56 (human) (UniProt Q9NQC3)
Assay: SPR (Biacore T100), reverse format: antibody captured on Protein A, human NOGO 5+6 GST as analyte, 1:1 model; mean (SD) of 5 or 6 runs

Chain of GST-human NOGO-A56 (human) (Q9NQC3 586-785, form in doubt): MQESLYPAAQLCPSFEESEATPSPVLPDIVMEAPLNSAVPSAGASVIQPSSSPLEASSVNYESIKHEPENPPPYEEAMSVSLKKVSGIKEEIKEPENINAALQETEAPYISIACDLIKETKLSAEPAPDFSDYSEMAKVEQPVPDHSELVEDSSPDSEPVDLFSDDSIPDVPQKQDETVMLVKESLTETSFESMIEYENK

## 11C7 (chimeric version) (antibody)
  Kd: 0.42 nM
  koff: 0.000117 s⁻¹
  kon: 285000 M⁻¹ s⁻¹
